These binders were tested against T1, HLA-A*02:01 (human) (assay: UV peptide-exchange ELISA).
T1 construct: MHC class I monomer of the UV-ligand exchange assay; also called peptide-receptive MHC molecules; MHC class I
Description: Candidate peptides for T cell based therapies according to the present invention were further tested for their MHC binding capacity (affinity). The individual peptide-MHC complexes were produced by UV-ligand exchange, where a UV-sensitive peptide is cleaved upon UV-irradiation, and exchanged with the peptide of interest as analyzed. Only peptide candidates that can effectively bind and stabilize the peptide-receptive MHC molecules prevent dissociation of the MHC complexes. To determine the yield of the exchange reaction, an ELISA was performed based on the detection of the light chain (β2m) of stabilized MHC complexes. The assay was performed as generally described in Rodenko et al. (Rodenko et al., 2006).
96 well MAXISorp plates (NUNC) were coated over night with 2 ug/ml streptavidin in PBS at room temperature, washed 4× and blocked forl h at 37° C. in 2% BSA containing blocking buffer. Refolded HLA-A*02:01/MLA-001 monomers served as standards, covering the range of 15-500 ng/ml. Peptide-MHC monomers of the UV-exchange reaction were diluted 100 fold in blocking buffer. Samples were incubated for 1 h at 37° C., washed four times, incubated with 2 ug/ml HRP conjugated anti-β2m for 1 h at 37° C., washed again and detected with TMB solution that is stopped with […]. Absorption was measured at 450 nm. Candidate peptides that show a high exchange yield (preferably higher than 50%, most preferred higher than 75%) are generally preferred for a generation and production of antibodies or fragments thereof, and/or T cell receptors or fragments thereof, as they show sufficient avidity to the MHC molecules and prevent dissociation of the MHC complexes.

Row | Binder | peptide exchange yield [%]
1 | SVHKGFAFV | 50 to 75
2 | TLLLGLTEV | 50 to 75
3 | SIIEGPIIKL | 50 to 75
4 | NLDKLWTLV | 20 to 50
5 | TLTFRVETV | 50 to 75
6 | QILSEIVEA | 20 to 50
7 | YLLDQSFVM | ≥ 75
8 | SLPEAPLDV | 50 to 75
9 | QLLDTYFTL | 50 to 75
10 | ALPEVSVEA | 50 to 75
11 | VLLSIPFVSV | 50 to 75
12 | SLLAELHVL | 50 to 75
13 | LVYEAIIMV | 50 to 75
14 | TLVPPAALISI | 50 to 75
15 | YLLSGDISEA | 50 to 75
16 | TLDPNQVSL | 20 to 50
17 | SLNIRDFTM | 50 to 75
18 | SLDNGGYYI | 50 to 75
19 | VMLEMTPEL | 50 to 75
20 | NLIKTVIKL | 50 to 75
21 | NLLDIDAPVTV | 50 to 75
22 | TVIENIHTI | 20 to 50
23 | ALPGGAAVAAV | ≥ 75
24 | LLGEFSIKM | 50 to 75
25 | VMDTHLVNI | ≥ 75
26 | SLFDQPLSII | 50 to 75
27 | MLLEHGITLV | ≥ 75
28 | VLDDRELLL | 50 to 75

Other lines, results leading:

Row | peptide exchange yield [%] | Binder
29 | 50 to 75 | FTVPRVVAV
30 | 50 to 75 | VLSHNLYTV
31 | 20 to 50 | LLKDGPEIGL
32 | 50 to 75 | VVDGMPPGV
33 | 50 to 75 | VLAEQNIIPSA
34 | 50 to 75 | VVMGTVPRL
35 | 10 to 20 | LLVLIPVYL
36 | ≥ 75 | SLLAELHVLTV
37 | 50 to 75 | VLFFNVQEV
38 | 10 to 20 | LQALEVLKI
39 | 50 to 75 | SLNIGDVQL
40 | 50 to 75 | SLSFLVPSL
41 | 50 to 75 | VLAELPIIVV
42 | 50 to 75 | ALLRLLPGL
43 | 50 to 75 | ALTKTNLQL
44 | 50 to 75 | SLQEEKLIYV
45 | 20 to 50 | TLDDDLDTV
46 | 50 to 75 | SILETVATL
47 | ≥ 75 | VMDPTKILI
48 | 20 to 50 | QLDEPAPQV

Row | peptide exchange yield [%] | Binder
49 | 50 to 75 | LLSEEEYHL
50 | 50 to 75 | VLMPTVYQQGV
51 | 50 to 75 | TLDTSKLYV
52 | 20 to 50 | VMGDIPAAV
53 | 50 to 75 | SLFDSAYGA
54 | 50 to 75 | NLTDVVEKL
55 | 50 to 75 | SQLDISEPYKV
56 | 50 to 75 | SMDDGMINV
57 | 20 to 50 | SMKDDLENV
58 | 50 to 75 | VLLSVPGPPV
59 | 50 to 75 | QIAELPATSV
60 | 50 to 75 | VLLGLEMTL
61 | 50 to 75 | SLIRILQTI
62 | 50 to 75 | SIVASLITV
63 | 50 to 75 | SALDTITTV
64 | 50 to 75 | SLMLEVPAL
65 | 20 to 50 | VMDDQRDLI
66 | 50 to 75 | TLYDMLASI
67 | 10 to 20 | MTAGFSTIAGSV
